Experimental data from the DeepSol protein solubility set.

Test: soluble on expression in E. coli; label from the status in PepcDB or PDB records

Q: With “MGSDKIHHHHHHMNKKLLNKVMKKLASSNVVISPTVKSSSTSLSMQKKPETEQVQQKLEQYLLSRYHFRFNLLTEQTECCKKDADTPIYKVISQRTLNSLCLEARARHINCWDKDVSRFVNSEQMPDYHPLLSYMNTLPEWDGKDRVTPLAQRISTKDFWVNSFHRWMLGVTAQWSGRMDRCANAVAPMLVSSEQGRCKSTFCELLMPDSLKDYYTDSFELTGQAGCEQKLAFFGLINLDEYDRLSPQKLPLLKNLMQMKKLDFRKSHRSSYSHLPRMASFIGTSNRKALLTDPSGSRRYFFAEVKEKIDCSPLEHKQLFAQLKAELDEGKRYWFSAAEESELKLRNQAYYALPTEAEMILHCFRLPEKGEDFKLYSAVCLFNILLKRYPAAMRGITINKMGRIMNSLGAERMHTTTGNMYKLVALAG” as the sequence, how does the “soluble on expression in E. coli” value read?
A: not soluble

Q: For “MGSDKIHHHHHHMNKKPLVSVYIPTHNRAELLSNAVKSVINQTYKNIEIIICNDGSGDNTDDVVNKLQKEYKDIPFVYLKNDSPMGACFSRNRCIAAASGYYLTGLDDDDYFLPNRIESLIKVCNERKIDLVCSNLIFKDGNKLKRGKNNSGVITSIDMGYENLVGNQLLTRLSYFEDVGGFDTNFPAWQDYDLWYRIIMKFGPCIKTNEATYVMDVENDRKRISTSSKAHIGYRSFIEKHSETLSEEMKSSLFIRDLINRNKKIPLKTLLSSGRKVASFKHNMRLCFPVVNSIAAFVREIKK”, which “soluble on expression in E. coli” value is on record?
A: not soluble

Q: For “MGSDKIHHHHHHMNKTVDMTVNTIYLVGGGKGGVGKSVVALALVDHLQRRGVNTVLVENDTSNPDVMRAVHEEIACASFDLDTAGGWIDMVNYCDGHRDAVVVVSTAARNQDGVTRYGATLGSTLDELGRRLVVFWVINRQRDSLELLRQFSETFPDATVHVVRNGYYGAPERFVLYQDSKLRKSIEAKGRSLDFPELADRVADDLRSHRLSVRKAVETLPIGQRAELLRWRACYDAMFSQVTDDA”, which “soluble on expression in E. coli” value is on record?
A: not soluble

Q: With “MGSDKIHHHHHHMNLRQLEYFVTLSETLSFTKTAQKFFISQTAVTKQIKLLENTLDTKLFNRNKHYVELTPAGNVFLMEAKAILLRVEEATERVHLTTIGFVGLLRIGFIKGYEKTAFSDLIFQLYNKYPNISITFFRGTESELYEKVLNSELDIVFNSVKPKNIDKTLEMKLIDKYPLKVVVHPTHPLAARKSVRFEELRGETIFKYNDGQDIEVTLLMVSANMGIAVMPSYCVRYLSQSQNLMIIAVENNNFYVDIAAVWNKENNNPALLRVLQIIKEAEQ” as the sequence, how does the “soluble on expression in E. coli” value read?
A: not soluble

Q: Which “soluble on expression in E. coli” value does the source give for “MGSDKIHHHHHHMNLWTSTPPMLRQISVRAAMDILLHQGPTSRADLAKKTGLSKQTMSEVIRTLETAGWVRVKGIVSGKVGRSAVTYEVAPDAGFVIGMDIGATTIRVAIADIAGTIVHEVEKSAGEHGGEALLAHVSGVVEASLKKARVSRSKVLLAAVAMPGVIDPETGRLSLAPNLSEIGSLDVIKALQGIFRCDVIIENDVNAAVIGESWKGSGIGLDSVAFVSLGTGIGLGVLFNGKLMRGAKGAAGEIGYLPFGADPYNSESLERGALECAIGARGILERYGNPGDGGMTVRDILEAAEKGDAKALATVQETARLAALLVVSVHAMLDPGKIILGGNVGRNPLMVRMVKEALATSTRSSISLEASTLASRATLVGAVAIALNQLHNALFSPQDLPSEMRLPA” here?
A: not soluble

Q: With “MGSDKIHHHHHHMNLYEKLAEDIETSIRQGVYRHGERLPSVRQISQQHRISVTTAIRAYLLLESRGLVTSRPQSGYFVNRRDESERKALELRPSKPIPISSPVDVSRLVLSTLRSIGVDDAVPLGSPYPDPSLFPFERINRYAYDAGRGKAQWGVTDALPPGNAKLVRQIARRYLENGMAVDPNEIIITVGATEAINLCLQAVAKPGDVIAVESPTFYAMLHAIERMGMKAIEVSTHPEHGIDIEALAAIVESQPIAACMVMPNFQNPLGFLMPDERKRELVELLTKRNIPVIENGVYNELHFDSPHPSTLKSFDTKGLVLHCSSFSKSLTSAYRIGWALPGRYRDQVEKLKFLNTLTSPSIPQLAIAEFLERDGFEHHLRKVRKAYAQQANLMKAIVSRFFPEGTRMSNPAGGYVLWVELPPRVDSMRLYKLALDQGITIGPGYMFSVSETTYRNFIRLNYSSPWSGEIEQAVITVGKLVSMCAS” as the sequence, how does the “soluble on expression in E. coli” value read?
A: not soluble

Q: With “MGSDKIHHHHHHMNNSIITDDEVREFYLNCSSQTIIESLLSLHESLRLYSQNHEILLNRMFKKLDETNADSNISHIFMPVVSKDFSGIKILVNNNNKNFQGVINVIEPETGKLIGCFEAKQITAIRTALASCIGLYKQLSCSHDKLFRFENGTCYLTCFGTGLQAFWHIYIAIKLIMSGIVGESLKLVEINILYHNNMMSLDRLKSLKNLFGSNIKIELNQYQINDISSEGNGAVSNSDIIFGCLPTLEPNLFLRQLLNSKASVEQKHTYISLIGSYKPVMHECDKELIDKFKSDNESACILVDSREHTLLESGELIDSNIAPHNLIEIGELDTLKNTVLNLNEKGCKRTITLCKIVGLAVMDVALAKEFLSLRTKNTENKE” as the sequence, how does the “soluble on expression in E. coli” value read?
A: not soluble

Q: For “MGSDKIHHHHHHMNPKKLKQLKKRVKKQAGAPYIQQLMKYRDLFKDDPQILVLINNVLESDRLLAAGLAPQQLPVLEIPDDFQDHLFERINQQYAMGDPAGDAAWNQLSAALPKVDQLLRNFRDYIEDQYGMWAYISAPFLKDLADFTGSAPVLEVMAGNGYISKGLKRLHPGQPIYTTDSKDWTHETGNQTGRHPVTTIEALDAVSAFNKYAATIKYVIMAWSPDKLTIDWDLLQAMRQSPYDIPLIVIGEKYGATGSKQFWDHANYQDNEAVTKLNAHFRPFDLIHDHVYVVR”, which “soluble on expression in E. coli” value is on record?
A: not soluble

Q: For “MGSDKIHHHHHHMNQEDDAKLAYLMAVNAIQMTKARYCRFVDTKQWDRLRTLFTADCRFEGLGSAPDRADLDIFIQGISRRLAHVVSVHHCHMGEIELVGADEAKVIWAMEDHLEWQDSGEVVEAPGNRGFRGYGHYEECYVRQGDTWKISLLRLTRLGIHPIPDAQPRLGTGRLGANPDWLPSDRRLR”, which “soluble on expression in E. coli” value is on record?
A: not soluble

Q: With “MGSDKIHHHHHHMNQEQNDIAIRVSNLSKCYHIYDTPRDRLKQFILPRLHHLTGQTPRQYFREFWALRDVSFEVKKGETIGIIGRNGSGKSTLLQMICGTLNPTSGSITTYGRIAALLELGSGFNPEFTGRENVYMNASVLGLSQEETDARFDDIAAFADIGEFIEQPVKTYSSGMMVRLGFAVQAQVKPDILIVDEALAVGDAKFQAKCFDRLQQLKDGGTSILLVTHSSEQIVTHCSEAILLDGGDVIEHGEPRYVVNHYMDLLFGKERKSYSASAFSTESNSVEPTQDDNLSLNFIDDVFSSHANYNEHEYRWGDGTATILDFYLLTDNEPYPSVITSGQSVVLGVAVRFYEDLVRPILGITIKTKEGVTVYGVNSETLETDEIKVLGSKGTTALIKAEFICRLAPGDYFISLGLATRKGEEIVPHDRRYDAIYLQIAPVTKFFGLVDLGLKLSAQNTSL” as the sequence, how does the “soluble on expression in E. coli” value read?
A: not soluble

Q: With “MGSDKIHHHHHHMNQHIKGKHLSFEERVIIQLRLKDGYSLRAIARELNCSPSTISYEVKRGTVELYGKVKRYKATQGHDAYQAHRKNCGRKSDFLRKTQFMRYVHKHFFKDGWSLDVCSNRATAVGAFSSRDVVCTKTLYNYVDQGLLDIHNYDLPEKLKRNTKLHRIRKNKKKLGRSIEERPKEINKRNEFGHWECDLVLGHKCTDDEVLLALSERMSREFLILRIPDKTSVSVMQAFKELQRQYSEHWNDIFKTITTDNGSEFADLSNLEKASNTLVYYAHPYTSCDKGTVERHNGLIRRFIPKEEAIANYSLQDIINIETWCNSLPRKILAYHTPDEIFERELDLIYQAA” as the sequence, how does the “soluble on expression in E. coli” value read?
A: not soluble

Q: Which “soluble on expression in E. coli” value does the source give for “MGSDKIHHHHHHMNQMQQWKPDFLGEGYQNLTIELGDDPDNETDVVTTVVRYNPDNHADESFAARPALLWVHGMTDYFFHTEFAEFFHNAGFAVYGIDLRKCGRSYRPGQQWHYTSDLAHYFPDLTAAAEVISSTHPELVPVAHSTGGLIVPLWMSQMRTSNPAAIEKIPALVLNSPWLDMMYPPLFIKLITPMVRVLGKRSPTTIIPGGGLGAYGKSIHKNFYGEWDFDTTIKPVEGHKKSIGWLRAVMAGQAEIHHDHVNVGVDVLTLCSNKSWLKSEYTEDTNTSDAVLDVKHIQKWAPHLSSPSSRVDVEIIDNARHDIFLSRKPARDHASEVLNNWLQSKLSSLKPSQ” here?
A: not soluble

Q: Which “soluble on expression in E. coli” value does the source give for “MGSDKIHHHHHHMNRLVSRSTLLNASRCFSRTAEASAKQTCLIETHKKHGGKLVEFAGYDMPTQYADFSIKESTIHTRKHVSLFDVSHMLQTYITGKDRVAFIESLTTADVQGLQENSGTLSVFTNEKGGIKDDLIIMKTDKDFLFLVTNAGCIEKDLPYLQENAAAWRSKGKDVKIETLDNRGLVAVQGPEMAKVLQEGTDIDLSKLTFMKTTVGKVFGIDGCRVTRCGYTGEDGVEISVDPTKAEQLVERLLASQAGSVKLAGLGARDALRLEAGLCLYGSDIEENTTPIEAGLAFVVAKRRRETLDFPGAEHIVKQLKEKSWPKRRVGLLAPAGRCPRSHLPLIDPLDKCSIGFVTSGCPSPTLGKNIAIAYVDKSHSKIGTKFVVDFGAKQAPVEVVKMPFVPTNYFTGK” here?
A: not soluble

Q: With “MGSDKIHHHHHHMNRNNFSHEIIEPIDNLDVNFKLFDDSGSYVANHWHNSLEIIYITSGDLQINMEGYTYNLKANECMFINSGIIHSTRCIYQNTSILLQVPLSFLNKYIPDFKNCYFDFKVNANDNNYKKNSSKVKLILENMREIKLSSPPAANLLFTSLLFELLFELYTNFKISVGNKNMKKTVLDLSKFEPVLEYTKINYKMPISINKIAKVAHLQPEYFCRKFKQYMGQTYLEYLNDVRISHIYKDLINTNDTLCSILEAHGFTNTKLFYRIFKEKFKCTPKHIRKKST” as the sequence, how does the “soluble on expression in E. coli” value read?
A: not soluble

Q: With “MGSDKIHHHHHHMNSELEINLRKLGFSVYEAKVYLTLLNLCNSTMKELSENAEIPYQKVYEVVKSLEDKGLVRVIEGRPKKVKLIDPSISLKVYRDKIVSELDYAIGNVISYWSEKGKGEADRSLHIKGKTIVMRMIRELVDKSNKIKVVWDILPEWLIKILKKYKGNLTVITSSNNLSLNAEVKYVKNIKSKFIIFDDSVLVTFNDQDEIVVDSCRGCVLQAEEHFDLLTYKSE” as the sequence, how does the “soluble on expression in E. coli” value read?
A: not soluble

Q: With “MGSDKIHHHHHHMNSGIYSALTGNVAAMKRLDVLSNNLANVNTPGFKKDRMTFESMLQTVGAQPRPGGGTDAPVFAETTFFTDYSPGSVKQTGNPFDLAIDGDGFFAVTTADGQRAYTRQGNFRLDSTGRLVTADGAQVAGGVVIAGGKVDINGKGEVLVDGSQVGRLEVVDFPKPYALQKLGGGLFVPADPQATPNPVTGEKVMQGAIEESNVNTVQEMVQLIETNRYFEMCSKVVKAYDDLTGKAANEIGKI” as the sequence, how does the “soluble on expression in E. coli” value read?
A: not soluble

Q: Which “soluble on expression in E. coli” value does the source give for “MGSDKIHHHHHHMNSIPHLILGDIITPTQAGQSLLIKKGYVLINGDSIIEVGEQAHFNKEISYTVSNYPDHLILPGLIDTHSHLSQYAICGAGDLPLMDWLNTLVFPAETAFSSNLQRCQRHAELYMHACLGSGTTTINTMVTSSRQATEIVCDVAARLGIRAFIGLVLMDRNAPDNLLVDCAQAFKDLTVLKDRYHGKNNIHITVSPRFAVTCSAAMLRQAGEFARANKLILHTHLDKDEGFDELIQSLFSTAHDYFDVFESTQCIADKTVFAHGTLLSLHEMKRMGDYAKQVGISHCPSSNFSFAMGMAPVSFFKGLGIEVGLGSDSGGGDSLSLFDEMRSASFTNKALWRLDKKTALIDAKTWLYHATLGGAKLLGLEKQIGSIEAGKKADLIILDDRNNYPLAELSSLSQELALDELQYRLARVIARSCENKLVAVYIDGKKVYQ” here?
A: not soluble

Q: With “MGSDKIHHHHHHMNSRTSFVSPDDRFSMVYFKMEHEGCWTGITKEHNIAIHTLKIIPLKDRNNIYGLFEIRAQGKKEFRDFLRRINREKTIHRVMAYSPSELRKNVYFIDLYEVYGGMIEGILNDYQSIFEYDVVRRGVEEKYAIIPSDRVLELKNSINGLGKIYQFKARCIKNFYYAFSPFLSYTPSEMQIIAEAVSRGYYSIPRHVGIRDLAEYFGMSKSTVQEYLRKAEQKTMNNLKLLKLMNEMKE” as the sequence, how does the “soluble on expression in E. coli” value read?
A: not soluble
